Test results taken from IntAct's records for PubMed 26688217.

B1: SUN domain-containing protein 2 (Mus musculus), Q8BJS4-3 (parent)
chain: MSRRSQRLTRYSQDDNDGGSSSSGASSVAGSQGTVFKDSPLRTLKRKSSNMKHLSPAPQLGPSSDSHTSYYSESVVRESYIGSPRAVSLARSALLDDHLHSEPYWSGDLRGRRRRGTGGSESSKANGLTAESKASEDFFGSSSGYSSEDDLAGRLFGLLYWWIGTTWYRLTTAASLLDVFVLTRSRHFSLNLKSFLWFLLLLLLLTGLTYGAWHFYPLGLQTLQPAVVSWWAAKESRKQPEVWESRDASQHFQAEQRVLSRVHSLERRLEALAADFSSNWQKEAIRLERLELRQGAAGHGGGSSLSHEDALSLLEGLVSRREATLKEDLRRDTVAHIQEELATLRAEHHQDSEDLFKKIVQASQESEARVQQLKTEWKSMTQEAFQESSVKELGRLEAQLASLRQELAALTLKQNSVADEVGLLPQKIQAARADVESQFPDWIRQFLLGDRGARSGLLQRDEMHAQLQELENKILTKMAEMQGKSAREAAASLGQILQKEGIVGVTEEQVHRIVKQALQRYSEDRIGMVDYALESGGASVISTRCSETYETKTALLSLFGIPLWYHSQSPRVILQPDVHPGNCWAFQGPQGFAVVRLSARIRPTAVTLEHVPKALSPNSTISSAPKDFAIFGFDEDLQQEGTLLGTFAYDQDGEPIQTFYFQASKMATYQVVELRILTNWGHPEYTCIYRFRVHGEPAH

Variants of: B1
Settings: with Syne2, Q6ZWQ0-1

Variant	effect of a mutation on the interaction
L400A;L403A	disrupting interaction strength
